For data set [1], the system named is HeLa Kyoto. Kind of data set: thermal stability score vs G1/S (z-score of summed log2 fold changes over temperatures); higher = more thermally stable than in G1/S.
Data set [2] deals with HeLa Kyoto. Briefly: melting temperature (median over replicates), in situ; higher = more thermally stable.
Data set [3] concerns HeLa Kyoto. Briefly: solubility in G1/S (NP-40 vs SDS abundance) (log2 ratio); higher = more soluble. The settings on record: cell cycle stage: G1/S.
Data set [4] deals with HeLa Kyoto. Briefly: solubility change mitosis vs G1/S (difference of NP-40 vs SDS log2 ratios) (log2 ratio difference); higher = more soluble in mitosis.
The mark [5] stands for this setting: cell cycle stage: early G1 (4.5 h after nocodazole release).
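Wherever melting temperature (median over replicates), in situ is given: HeLa Kyoto cells synchronized by double thymidine or nocodazole block, proteins quantified by TMT10plex mass spectrometry, three independent biological replicates.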
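Wherever solubility change mitosis vs G1/S (difference of NP-40 vs SDS log2 ratios) is given: synchronized HeLa Kyoto cells (double thymidine block for G1/S, nocodazole release for mitosis), protein amounts in NP-40 versus SDS lysates quantified by mass spectrometry, three biological replicates.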
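Wherever solubility in G1/S (NP-40 vs SDS abundance) is given: HeLa Kyoto cells arrested at G1/S by double thymidine block, proteins quantified by TMT10plex mass spectrometry in mild NP-40 versus SDS extracts, three biological replicates.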
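Wherever thermal stability score vs G1/S (z-score of summed log2 fold changes over temperatures) is given: synchronized HeLa Kyoto cells, proteins quantified by TMT10plex mass spectrometry, three biological replicates, mitosis taken 0.5 h after nocodazole release, G1/S directly after double thymidine block.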

Turning to “MSASASVGGPVPQPPPGPAAALPPGSAARALHVELPSQQRRLRHLRNIAARNIVNRNGHQLLDTYFTLHLCSTEKIYKEFYRSEVIKNSLNPTWRSLDFGIMPDRLDTSVSCFVVKIWGGKENIYQLLIEWKVCLDGLKYLGQQIHARNQNEIIFGLNDGYYGAPFEHKGYSNAQKTILLQVDQNCVRNSYDVFSLLRLHRAQCAIKQTQVTVQKIGKEIEEKLRLTSTSNELKKKSECLQLKILVLQNELERQKKALGREVALLHKQQIALQDKGSAFSAEHLKLQLQKESLNELRKECTAKRELFLKTNAQLTIRCRQLLSELSYIYPIDLNEHKDYFVCGVKLPNSEDFQAKDDGSIAVALGYTAHLVSMISFFLQVPLRYPIIHKGSRSTIKDNINDKLTEKEREFPLYPKGGEKLQFDYGVYLLNKNIAQLRYQHGLGTPDLRQTLPNLKNFMEHGLMVRCDRHHTSSAIPVPKRQSSIFGGADVGFSGGIPSPDKGHRKRASSENERLQYKTPPPSYNSALAQPVTTVPSMGETERKITSLSSSLDTSLDFSKENKKKGEDLVGSLNGGHANVHPSQEQGEALSGHRATVNGTLLPSEQAGSASVQLPGEFHPVSEAELCCTVEQAEEIIGLEATGFASGDQLEAFNCIPVDSAVAVECDEQVLGEFEEFSRRIYALNENVSSFRRPRRSSDK [UVRAG]”, the figures for the thermal stability score in the data set with HeLa Kyoto [1] (setting [5]) and in the data set on HeLa Kyoto [1] (cell cycle stage: mitosis) were 0.204 and -0.16, respectively. Besides, the values for the melting temperature with HeLa Kyoto [2] (cell cycle stage: G1/S) and in the data set with HeLa Kyoto [2] (cell cycle stage: mitosis) were 51.7 °C and 52.4 °C, respectively. Also, the “solubility in G1/S (log2)” value in the data set on HeLa Kyoto [3] stood at 0.216. The “solubility change mitosis (log2)” value with HeLa Kyoto [4] is -0.117.
For “MYAVYKQAHPPTGLEFSMYCNFFNNSERNLVVAGTSQLYVYRLNRDAEALTKNDRSTEGKAHREKLELAASFSFFGNVMSMASVQLAGAKRDALLLSFKDAKLSVVEYDPGTHDLKTLSLHYFEEPELRDGFVQNVHTPRVRVDPDGRCAAMLVYGTRLVVLPFRRESLAEEHEGLVGEGQRSSFLPSYIIDVRALDEKLLNIIDLQFLHGYYEPTLLILFEPNQTWPGRVAVRQDTCSIVAISLNITQKVHPVIWSLTSLPFDCTQALAVPKPIGGVVVFAVNSLLYLNQSVPPYGVALNSLTTGTTAFPLRTQEGVRITLDCAQATFISYDKMVISLKGGEIYVLTLITDGMRSVRAFHFDKAAASVLTTSMVTMEPGYLFLGSRLGNSLLLKYTEKLQEPPASAVREAADKEEPPSKKKRVDATAGWSAAGKSVPQDEVDEIEVYGSEAQSGTQLATYSFEVCDSILNIGPCANAAVGEPAFLSEEFQNSPEPDLEIVVCSGHGKNGALSVLQKSIRPQVVTTFELPGCYDMWTVIAPVRKEEEDNPKGEGTEQEPSTTPEADDDGRRHGFLILSREDSTMILQTGQEIMELDTSGFATQGPTVFAGNIGDNRYIVQVSPLGIRLLEGVNQLHFIPVDLGAPIVQCAVADPYVVIMSAEGHVTMFLLKSDSYGGRHHRLALHKPPLHHQSKVITLCLYRDLSGMFTTESRLGGARDELGGRSGPEAEGLGSETSPTVDDEEEMLYGDSGSLFSPSKEEARRSSQPPADRDPAPFRAEPTHWCLLVRENGTMEIYQLPDWRLVFLVKNFPVGQRVLVDSSFGQPTTQGEARREEATRQGELPLVKEVLLVALGSRQSRPYLLVHVDQELLIYEAFPHDSQLGQGNLKVRFKKVPHNINFREKKPKPSKKKAEGGGAEEGAGARGRVARFRYFEDIYGYSGVFICGPSPHWLLVTGRGALRLHPMAIDGPVDSFAPFHNVNCPRGFLYFNRQGELRISVLPAYLSYDAPWPVRKIPLRCTAHYVAYHVESKVYAVATSTNTPCARIPRMTGEEKEFETIERDERYIHPQQEAFSIQLISPVSWEAIPNARIELQEWEHVTCMKTVSLRSEETVSGLKGYVAAGTCLMQGEEVTCRGRILIMDVIEVVPEPGQPLTKNKFKVLYEKEQKGPVTALCHCNGHLVSAIGQKIFLWSLRASELTGMAFIDTQLYIHQMISVKNFILAADVMKSISLLRYQEESKTLSLVSRDAKPLEVYSVDFMVDNAQLGFLVSDRDRNLMVYMYLPEAKESFGGMRLLRRADFHVGAHVNTFWRTPCRGATEGLSKKSVVWENKHITWFATLDGGIGLLLPMQEKTYRRLLMLQNALTTMLPHHAGLNPRAFRMLHVDRRTLQNAVRNVLDGELLNRYLYLSTMERSELAKKIGTTPDIILDDLLETDRVTAHF [CPSF1]”, the thermal stability score is -0.361 with HeLa Kyoto [1] (setting [5]) and 0.307 with HeLa Kyoto [1] (cell cycle stage: mitosis). The melting temperature in the data set with HeLa Kyoto [2] (cell cycle stage: G1/S) was found to be 50.3 °C; with HeLa Kyoto [2] (cell cycle stage: mitosis) it was 50.6 °C. For the same substance, the “solubility in G1/S (log2)” value with HeLa Kyoto [3] is -0.464. The “solubility change mitosis (log2)” value in the data set on HeLa Kyoto [4] was 0.129.
As for “MASSAQSGGSSGGPAVPTVQRGIIKMVLSGCAIIVRGQPRGGPPPERQINLSNIRAGNLARRAAATQPDAKDTPDEPWAFPAREFLRKKLIGKEVCFTIENKTPQGREYGMIYLGKDTNGENIAESLVAEGLATRREGMRANNPEQNRLSECEEQAKAAKKGMWSEGNGSHTIRDLKYTIENPRHFVDSHHQKPVNAIIEHVRDGSVVRALLLPDYYLVTVMLSGIKCPTFRREADGSETPEPFAAEAKFFTESRLLQRDVQIILESCHNQNILGTILHPNGNITELLLKEGFARCVDWSIAVYTRGAEKLRAAERFAKERRLRIWRDYVAPTANLDQKDKQFVAKVMQVLNADAIVVKLNSGDYKTIHLSSIRPPRLEGENTQDKNKKLRPLYDIPYMFEAREFLRKKLIGKKVNVTVDYIRPASPATETVPAFSERTCATVTIGGINIAEALVSKGLATVIRYRQDDDQRSSHYDELLAAEARAIKNGKGLHSKKEVPIHRVADISGDTQKAKQFLPFLQRAGRSEAVVEYVFSGSRLKLYLPKETCLITFLLAGIECPRGARNLPGLVQEGEPFSEEATLFTKELVLQREVEVEVESMDKAGNFIGWLHIDGANLSVLLVEHALSKVHFTAERSSYYKSLLSAEEAAKQKKEKVWAHYEEQPVEEVMPVLEEKERSASYKPVFVTEITDDLHFYVQDVETGTQLEKLMENMRNDIASHPPVEGSYAPRRGEFCIAKFVDGEWYRARVEKVESPAKIHVFYIDYGNREVLPSTRLGTLSPAFSTRVLPAQATEYAFAFIQVPQDDDARTDAVDSVVRDIQNTQCLLNVEHLSAGCPHVTLQFADSKGDVGLGLVKEGLVMVEVRKEKQFQKVITEYLNAQESAKSARLNLWRYGDFRADDADEFGYSR [SND1]”, the figures for the thermal stability score in the data set on HeLa Kyoto [1] (setting [5]) and in the data set with HeLa Kyoto [1] (cell cycle stage: mitosis) were 0.34 and 3.69, respectively. Besides, the melting temperature with HeLa Kyoto [2] (cell cycle stage: G1/S) worked out at 47.9 °C; with HeLa Kyoto [2] (cell cycle stage: mitosis) it was 48.1 °C. For the same substance, the “solubility in G1/S (log2)” value in the data set on HeLa Kyoto [3] is -0.0826. Also, the “solubility change mitosis (log2)” value in the data set with HeLa Kyoto [4] is 0.0116.
Turning to “MGCTLSAEDKAAVERSKMIDRNLREDGEKAAKEVKLLLLGAGESGKSTIVKQMKIIHEDGYSEDECKQYKVVVYSNTIQSIIAIIRAMGRLKIDFGEAARADDARQLFVLAGSAEEGVMTPELAGVIKRLWRDGGVQACFSRSREYQLNDSASYYLNDLDRISQSNYIPTQQDVLRTRVKTTGIVETHFTFKDLYFKMFDVGGQRSERKKWIHCFEGVTAIIFCVALSDYDLVLAEDEEMNRMHESMKLFDSICNNKWFTETSIILFLNKKDLFEEKIKRSPLTICYPEYTGSNTYEEAAAYIQCQFEDLNRRKDTKEIYTHFTCATDTKNVQFVFDAVTDVIIKNNLKECGLY [GNAI3]”, the thermal stability score in the data set with HeLa Kyoto [1] (setting [5]) turned out to be 0.761; with HeLa Kyoto [1] (cell cycle stage: mitosis), 0.823. Also, the melting temperature in the data set on HeLa Kyoto [2] (cell cycle stage: G1/S) worked out at 53.5 °C; with HeLa Kyoto [2] (cell cycle stage: mitosis), 54.2 °C. In addition, the “solubility in G1/S (log2)” value in the data set with HeLa Kyoto [3] is -0.638. The “solubility change mitosis (log2)” value in the data set on HeLa Kyoto [4] was -0.175.
On to “MQPDMSLNVIKMKSSDFLESAELDSGGFGKVSLCFHRTQGLMIMKTVYKGPNCIEHNEALLEEAKMMNRLRHSRVVKLLGVIIEEGKYSLVMEYMEKGNLMHVLKAEMSTPLSVKGRIILEIIEGMCYLHGKGVIHKDLKPENILVDNDFHIKIADLGLASFKMWSKLNNEEHNELREVDGTAKKNGGTLYYMAPEHLNDVNAKPTEKSDVYSFAVVLWAIFANKEPYENAICEQQLIMCIKSGNRPDVDDITEYCPREIISLMKLCWEANPEARPTFPGIEEKFRPFYLSQLEESVEEDVKSLKKEYSNENAVVKRMQSLQLDCVAVPSSRSNSATEQPGSLHSSQGLGMGPVEESWFAPSLEHPQEENEPSLQSKLQDEANYHLYGSRMDRQTKQQPRQNVAYNREEERRRRVSHDPFAQQRPYENFQNTEGKGTAYSSAASHGNAVHQPSGLTSQPQVLYQNNGLYSSHGFGTRPLDPGTAGPRVWYRPIPSHMPSLHNIPVPETNYLGNTPTMPFSSLPPTDESIKYTIYNSTGIQIGAYNYMEIGGTSSSLLDSTNTNFKEEPAAKYQAIFDNTTSLTDKHLDPIRENLGKHWKNCARKLGFTQSQIDEIDHDYERDGLKEKVYQMLQKWVMREGIKGATVGKLAQALHQCSRIDLLSSLIYVSQN [RIPK1]”, for which the thermal stability score amounted to 0.9 with HeLa Kyoto [1] (setting [5]) and 1.82 in the data set with HeLa Kyoto [1] (cell cycle stage: mitosis). The results for the melting temperature with HeLa Kyoto [2] (cell cycle stage: G1/S) and in the data set with HeLa Kyoto [2] (cell cycle stage: mitosis) were 48.4 °C and 48 °C, respectively. In addition, in the data set on HeLa Kyoto [3], the “solubility in G1/S (log2)” value is 0.0577. Besides, the “solubility change mitosis (log2)” value with HeLa Kyoto [4] was -0.114.
For SETX, the thermal stability score in the data set on HeLa Kyoto [1] (setting [5]) worked out at 0.199; in the data set on HeLa Kyoto [1] (cell cycle stage: mitosis), 1.04. The melting temperature was 49.9 °C with HeLa Kyoto [2] (cell cycle stage: G1/S) and 51 °C with HeLa Kyoto [2] (cell cycle stage: mitosis). The “solubility in G1/S (log2)” value in the data set with HeLa Kyoto [3] was -0.385. For the same substance, the “solubility change mitosis (log2)” value in the data set on HeLa Kyoto [4] turned out to be 0.0473.
In the case of “MAFRQALQLAACGLAGGSAAVLFSAVAVGKPRAGGDAEPRPAEPPAWAGGARPGPGVWDPNWDRREPLSLINVRKRNVESGEEELASKLDHYKAKATRHIFLIRHSQYHVDGSLEKDRTLTPLGREQAELTGLRLASLGLKFNKIVHSSMTRAIETTDIISRHLPGVCKVSTDLLREGAPIEPDPPVSHWKPEAVQYYEDGARIEAAFRNYIHRADARQEEDSYEIFICHANVIRYIVCRALQFPPEGWLRLSLNNGSITHLVIRPNGRVALRTLGDTGFMPPDKITRS [PGAM5]”, the thermal stability score in the data set with HeLa Kyoto [1] (setting [5]) was 1.94; in the data set on HeLa Kyoto [1] (cell cycle stage: mitosis), -3.72. Also, the melting temperature with HeLa Kyoto [2] (cell cycle stage: G1/S) was determined as 52.8 °C; in the data set on HeLa Kyoto [2] (cell cycle stage: mitosis) it was 52.2 °C. For the same substance, the “solubility in G1/S (log2)” value with HeLa Kyoto [3] is -0.0731. Further, in the data set with HeLa Kyoto [4], the “solubility change mitosis (log2)” value was 0.121.
